The values that follow come from patent publication US20240175869A1 (BROWN UNIVERSITY, published 2024).

As a reminder, the EC50 is the concentration that produces a half-maximal response.

Test [1] has as its target T1, ALK6.
T1 construct: Soluble ALK6 titrated at 3.125-100 nM over immobilized MuSK constructs; That is inferred from the anti-human IgG Fc detection antibody; also called BMPR1b; BMPR1B
Nature of the test: solid-phase binding assay, half max as printed (FIG. 9).

Test [2] has as its target T1, ALK6. The experiment in a line: solid-phase binding assay, ALK6 at 100 nM, FL ECD against ΔIg2 (FIG. 7).

T1 sequence (O00238 whole entry, the tested form may be a part): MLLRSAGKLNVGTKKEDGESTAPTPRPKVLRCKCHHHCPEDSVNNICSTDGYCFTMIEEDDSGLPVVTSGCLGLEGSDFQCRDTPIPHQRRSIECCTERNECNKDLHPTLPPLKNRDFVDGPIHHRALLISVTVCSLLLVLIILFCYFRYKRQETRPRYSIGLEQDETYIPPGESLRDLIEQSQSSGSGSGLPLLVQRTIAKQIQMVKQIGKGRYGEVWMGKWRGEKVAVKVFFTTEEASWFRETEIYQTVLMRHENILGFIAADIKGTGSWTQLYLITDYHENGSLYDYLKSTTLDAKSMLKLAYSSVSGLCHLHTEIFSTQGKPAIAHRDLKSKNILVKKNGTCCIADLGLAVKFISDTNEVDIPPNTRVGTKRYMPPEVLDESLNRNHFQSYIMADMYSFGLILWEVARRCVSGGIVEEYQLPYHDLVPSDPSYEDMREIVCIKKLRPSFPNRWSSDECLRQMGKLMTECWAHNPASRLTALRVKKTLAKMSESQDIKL

B1: full-length ectodomain (FL ECD) of MuSK, His-tagged (receptor)
chain: EKLPKAPVITTPLETVDALVEEVATFMCAVESYPQPEISWTRNKILIKLFDTRYSIRENGQLLTILSVEDSDDGIYCCTANNGVGGAVESCGALQVKMKPKITRPPINVKIIEGLKAVLPCTTMGNPKPSVSWIKGDSALRENSRIAVLESGSLRIHNVQKEDAGQYRCVAKNSLGTAYSKLVKLEVEVFARILRAPESHNVTFGSFVTLRCTAIGMPVPTISWIENGNAVSSGSIQENVKDRVIDSRLQLFITKPGLYTCIATNKHGEKFSTAKAAATVSIAEWSKSQKESKGYCAQYRGEVCDAVLVKDSLVFFNTSYPDPEEAQELLIHTAWNELKAVSPLCRPAAEALLCNHLFQECSPGVLPTPMPICREYCLAVKELFCAKEWLAMEGKTHRGLYRSGMHFLPVPECSKLPSMHQDPTACTRLPYLDYKKENITTFPSITSSKPSVDIPNLPASTSSFAVSPAYSMT
B1: the EC50 in the test with ALK6 [1] is about 0.5 nM. The “fold increase in absorbance against ΔIg2 MuSK” value with ALK6 [2] stood at 6.6 fold.
